Results as given in patent US9512236B2, “Amino acid sequences directed against GPCRS and polypeptides comprising the same for the treatment of GPCR-related diseases and disorders” (Ablynx N.V., priority 2006, dated 2016).
One block for each molecule: values may come before it.

Columns and labels:
hCXCR4/Gαqi5 = target: T1, hCXCR4/Gαqi5 (Homo sapiens, UniProt P61073); test: CXCL12-induced inositol phosphate accumulation in HEK293T cells co-transfected with CXCR4 and Gαqi5; assay type: cell-based; conditions: 30 nM CXCL12
T1 construct: expressed in transfected cells; host or cells: HEK293T
Description: In an effort to functionally characterize the Nanobodies 238D2 and 238D4, the inventors measured their ability to activate G-protein signaling or to inhibit the CXCL12-induced G-protein signaling in HEK293T cells transiently co-transfected with cDNAs encoding CXCR4 and Gαqi5. This assay is based upon the use of the chimeric Gαqi5-protein that contains of a Gαq backbone with the 5 C-terminal amino acids replaced by those from Gαi. The chimeric G-protein is activated by CXCR4 like a Gαi subunit but transduces signals like Gαq proteins (Coward, P., et al., Chimeric G Proteins Allow a High-Throughput Signaling Assay of […] Receptors, Analytical Biochemistry (1999) 270: 242-248). Thus, the activation of Gαqi5 can be quantified by the measurement of accumulated inositol phosphates.
Methods: On day 1, HEK293T cells were plated out at a density of 2 million cells/dish. On day 2, these cells were transfected with 2.5 μg CXCR4 DNA and 2.5 μg Gαqi5, using the PEI method. Cells were plated out the next day in poly-L-lysine coated 24 well plates (500 μl/well) and labeled after 4-6 hours with 2 μCi/ml 3H-inositol in inositol-free medium. […] After this final incubation, the reaction was stopped by aspiration of stimulation medium and addition of 10 mM formic acid (FIG. 4).

PTHR = target: T2, PTHR (Homo sapiens, UniProt Q03431); test: Binding of clones measured on Biacore (Table B-3)
T2 sequence (Q03431 27-593): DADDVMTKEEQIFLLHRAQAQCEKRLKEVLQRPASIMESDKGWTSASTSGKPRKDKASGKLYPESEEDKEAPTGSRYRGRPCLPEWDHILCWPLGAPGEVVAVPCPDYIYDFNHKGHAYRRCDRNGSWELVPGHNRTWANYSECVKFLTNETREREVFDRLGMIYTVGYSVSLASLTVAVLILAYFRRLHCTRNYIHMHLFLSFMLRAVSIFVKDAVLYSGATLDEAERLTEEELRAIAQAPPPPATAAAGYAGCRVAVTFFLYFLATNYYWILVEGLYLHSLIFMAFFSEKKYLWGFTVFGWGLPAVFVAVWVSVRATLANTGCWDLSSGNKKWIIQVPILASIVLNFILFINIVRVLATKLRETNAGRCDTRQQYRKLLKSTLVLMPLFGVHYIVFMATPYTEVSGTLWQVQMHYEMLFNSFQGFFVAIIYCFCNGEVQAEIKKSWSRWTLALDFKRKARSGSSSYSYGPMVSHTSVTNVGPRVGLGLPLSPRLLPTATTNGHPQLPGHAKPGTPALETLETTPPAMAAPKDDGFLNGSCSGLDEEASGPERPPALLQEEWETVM
Experimental: (§1) Binding of 4 clones directed against CB1R and of 4 clones against PTHR was measured on Biacore.

CXCR7 point mutants [1] = target: CXCR7 point mutants (Homo sapiens, UniProt P25106, M33Q); test: Binding to a set of 10 point mutants of CXCR7; conditions: M33Q point mutant
Experimental: (§2) In a third approach, Nanobodies were tested for their binding to a set of 10 point mutants of CXCR7 (S9A, F14Y, 117L, S18N, W19A, S23G, D25A, V32A, M33Q, N36T), which yielded information on the individual NANOBODY® (VHH) epitopes.

CXCR7 point mutants [2] = target: CXCR7 point mutants (Homo sapiens, UniProt P25106, W19A); test: Binding to a set of 10 point mutants of CXCR7; conditions: W19A point mutant
Experimental: as §2

CB1R = test: Binding of clones measured on Biacore (Table B-2); conditions: read-out: Binding of clones against CB1R
Experimental: as §1

CXCR4 = target: T3, CXCR4 (Homo sapiens, UniProt P61073); test: [125I]-CXCL12 competition binding on membranes from HEK293T cells transiently expressing CXCR4 (Table I)
T3 construct: expressed in transfected cells; host or cells: HEK293T (membranes)
Description: Another example of a therapeutic relevant GPCR is CXCR4, which was previously identified as such in Table C and Table D of US20100062004. This representative GPCR has now been further investigated by the present inventors. Different pools of highly similar clones able to inhibit specific [^125I]-CXCL12 binding were identified in a CXCR4 competition binding assay. Nanobodies representing these different pools were purified and further pharmacologically analyzed as detailed in the Example section of WO09/138519. In particular two representative monovalent Nanobodies 238D2 and 238D4 and different mono- and heterobivalent constructs thereof have been analyzed in depth:
Additionally, the inventors engineered a series of mono-specific bivalent and biparatopic CXCR4 constructs. […] Overall, short peptide linkers were used favoring binding to CXCR4 monomers.
In membrane binding experiments mAb 12G5, which is a known neutralizing CXCR4 antibody, seems only to displace 50% of radiolabeled 125I-CXCL12 (CXCR4 ligand).

CXCR7 = CXCR7 (Homo sapiens, UniProt P25106); test: Competition with Alexa647-labelled 14G03 in FACS analysis; assay type: binding; conditions: Alexa647-labelled 14G03, FACS
Description: Nanobodies 08A05, 08A10, 07C03, 01C10 and 14G03, Mab 8F11 (Biolegend), Mab 11G8 (R&D) and Mab 9C4 (MBL) were further tested for competition with Alexa647-labelled 14G03 in FACS analysis.

CXCR7 point mutants (Homo sapiens, UniProt P25106, W19A), sequence (P25106 whole entry W19A): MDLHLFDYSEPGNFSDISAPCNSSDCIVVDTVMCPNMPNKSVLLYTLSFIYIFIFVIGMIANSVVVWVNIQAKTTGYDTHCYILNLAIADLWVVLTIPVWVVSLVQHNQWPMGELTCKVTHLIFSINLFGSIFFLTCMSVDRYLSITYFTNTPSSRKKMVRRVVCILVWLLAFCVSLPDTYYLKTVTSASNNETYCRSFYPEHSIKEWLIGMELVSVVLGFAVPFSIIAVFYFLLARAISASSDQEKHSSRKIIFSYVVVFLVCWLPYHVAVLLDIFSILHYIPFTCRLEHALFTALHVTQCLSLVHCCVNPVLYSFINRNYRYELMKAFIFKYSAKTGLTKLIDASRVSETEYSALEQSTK
CXCR7 point mutants (Homo sapiens, UniProt P25106, M33Q), sequence (P25106 whole entry M33Q): as the sequence (P25106 whole entry W19A) above, with A19W, M33Q counted along it
T3 sequence (P61073 whole entry): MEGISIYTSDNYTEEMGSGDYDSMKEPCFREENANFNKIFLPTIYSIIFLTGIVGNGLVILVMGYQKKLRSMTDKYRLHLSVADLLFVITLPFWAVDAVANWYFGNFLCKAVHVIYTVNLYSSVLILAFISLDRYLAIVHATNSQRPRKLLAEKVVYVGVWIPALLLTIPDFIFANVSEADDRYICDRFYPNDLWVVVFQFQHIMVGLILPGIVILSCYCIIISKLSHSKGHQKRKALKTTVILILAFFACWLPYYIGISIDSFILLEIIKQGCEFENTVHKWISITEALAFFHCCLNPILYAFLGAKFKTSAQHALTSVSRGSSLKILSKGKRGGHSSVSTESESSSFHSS
CXCR7, sequence (P25106 whole entry): as the sequence (P25106 whole entry W19A) above, with A19W counted along it
T1 sequence (P61073 whole entry): as the sequence (P61073 whole entry) above

concentration needed to inhibit CXCR4 function (hCXCR4/Gαqi5): 1 µM
Molecule: c1cc(CN2CCCNCCNCCCNCC2)ccc1CN1CCCNCCNCCCNCC1 [AMD3100, plerixafor, reference compound]

Kd (PTHR; PTHR + CaCl2): 70 nM
Kd (PTHR; PTHR Fos12): 360 nM
B1: vHH26F2 (protein)
VHH: EVQLVESGGGLVQAGGSLRLSCVASGFSFDDYAIGWFRQAPGQDREPLACITSGGTRNYNPSVMARFRIDRDNSVKTVYLQINTLKPEDTAVYYCSTELDRQGGSAHECREYDTWGQGTQVTVSS

epitope includes residue M33 (CXCR7 point mutants [1]): included residue M33
effect of W19A mutation on binding (CXCR7 point mutants [2]): did not affect
B2: 14G03: Nanobody against human CXCR7, Group 2 (protein)
VHH: EVQLVESGGGLVQPGGSLRISCAASGSIYLINYMGWYRQAPGKQRELVATLTSGGSTNYAGSVKGRFAISRDNAKNTVYLQMNSLKPEDTAVYYCNIGGTLYDRRRFESWGQGTQVTVSS
modifications: Nanobody, Nanobody constructs or fragments thereof

Kd (PTHR; PTHR + CaCl2): 9 nM
Kd (PTHR; PTHR − CaCl2): 17 nM
B3: vHH22A3 (protein)
VHH: EVQLVESGGGLVQAGGSLRLSCAASGNIFANNIMGWYRQPPGKEREFVAHVSHDGDSMYAVSVKGRFAISRKDATNLYLQMNSLKPEDTAIYFCRLLNIPTQGRMEGFWGQGTQVTVSS

Kd (CB1R): 36 nM
B4: vHH6H4 (protein)
VHH: EVQLVESGGGLVQAGGSLRLACAASGSIFSFNAMGWYRQAPGKQRELLAVITRDGITKYADSVKGRFTISRDNAKNTMYLQMNSLKPEDTAVYYCHTGLPTGRGSHSDYWGQGTQVTVSS

Kd (PTHR; PTHR − CaCl2): 22 nM
B5: vHH23A3 (protein)
VHH: EVQLVESGGGLVQAGGSLRLSCAASGLTFSNYAMGWFRQAPGKEREWVASINWSGGSTYYEDSVEGRFTISRDNAKNTVNLQMNSLKPEDTAVYYCAAKRGHYSREYDYWGQGTQVTVSS

Ki (CXCR4; [125I]-CXCL12 displacement, membranes from HEK293T cells transiently expressing CXCR4, read-out: Ki (nM) (receptor affinity)): 0.36 nM
Rel. potency (potency relative to those of monovalent 238D2) (CXCR4; footnote a: relative to monovalent 238D2): 27
Rel. potency (potency relative to those of monovalent 238D4) (CXCR4; footnote b: relative to monovalent 238D4): 17
increase in affinity to CXCR4 over monovalent counterpart 238D2 (CXCR4; relative to monovalent 238D2): 27 fold
increase in affinity to CXCR4 over monovalent counterpart 238D4 (CXCR4; relative to monovalent 238D4): 17 fold
B6: 238D2-20GS-238D4: biparatopic CXCR4 Nanobody, 238D2 linked to 238D4 via 20 amino acid GGGGS-repeat linker (protein)
chain: EVQLVESGGGLVQTGGSLRLSCAASGFTFSSYAMSWVRQAPGKGLEWVSGIKSSGDSTRYAGSVKGRFTISRDNAKNMLYLQMYSLKPEDTAVYYCAKSRVSRTGLYTYDNRGQGTQVTVSSGGGGSGGGGSGGGGSGGGGSEVQLMESGGGLVQAGGSLRLSCAASGRTFNNYAMGWFRRAPGKEREFVAAITRSGVRSGVSAIYGDSVKDRFTISRDNAKNTLYLQMNSLKPEDTAVYTCAASAIGSGALRRFEYDYSGQGTQVTVSS
inhibitory potency on CXCL12-induced inositol phosphate accumulation (hCXCR4/Gαqi5; compared to monovalent counterparts and 12G5, FIG. 4): significantly increased inhibitory potency

competition with 14G03 binding to CXCR7 (CXCR7): compete
epitope includes residue M33 (CXCR7 point mutants [1]): included residue M33
effect of W19A mutation on binding (CXCR7 point mutants [2]): did not affect
B7: 08A05: Nanobody against human CXCR7, Group 2 (protein)
VHH: EVQLVESGGGLVQAGDSLRLSCAASGLTFSNYDMGWFRQAPGKEREFVGASWWSGGAPYYSDSVKGRFTISRDNAKNTVYLQANSLRPEDTAVYYCAAKRLRSFASGGSYDYWGQGTQVTVSS
modifications: Nanobody, Nanobody constructs or fragments thereof

competition with 14G03 binding to CXCR7 (CXCR7): compete
epitope includes residue M33 (CXCR7 point mutants [1]): included residue M33
effect of W19A mutation on binding (CXCR7 point mutants [2]): did not affect
B8: 08A10: Nanobody against human CXCR7, Group 2 (protein)
VHH: EVQLVESGGGLVQAGGSLRLSCAASGSIFSIAAMGWYRQATGKQRELVATITDGGTTTYADSVKGRVTISRDRSANTVYLAMNNLKPDDTAVYYCYAYLRYTSRVPGDNYWGQGTQVTVSS
modifications: Nanobody, Nanobody constructs or fragments thereof

competition with 14G03 binding to CXCR7 (CXCR7): does not
effect of W19A mutation on binding (CXCR7 point mutants [2]): affected
B9: 01C10: Nanobody against human CXCR7, Group 1 (protein)
VHH: EVQLVESGGGLVQTGASLRLSCAASGRTFSNYAMGWFRQAPGKERERVAAITPRAFTTYYADSVKGRFTISRDNAKNTAYLQMVSLKPEDTAVYYCAAQLVGSGSNLGRQESYAYWGQGTQVTVSS
modifications: Nanobody, Nanobody constructs or fragments thereof

Displacem. (%) (maximal displacement of [125I]-CXCL12) (CXCR4; membranes from HEK293T cells transiently expressing CXCR4, means ± S.E.M.): 96 ± 5%
B10: L13 (protein)
chain: EVQLMESGGGLVQAGGSLRLSCAASGRTFNNYAMGWFRRAPGKEREFVAAITRSGVRSGVSAIYGDSVKDRFTISRDNAKNTLYLQMNSLKPEDTAVYTCAASAIGSGALRRFEYDYSGQGTQVTVSSGGGGSGGGGSGGGGSGGGGSEVQLMESGGGLVQAGGSLRLSCAASGRTFNNYAMGWFRRAPGKEREFVAAITRSGVRSGVSAIYGDSVKDRFTISRDNAKNTLYLQMNSLKPEDTAVYTCAASAIGSGALRRFEYDYSGQGTQVTVSS

Kd (PTHR; PTHR − CaCl2): 17 nM
B11: vHH26A6 (protein)
VHH: EVQLVESGGGLVQAGGSLRLSCAASRSRSSFDDMGWYRQAPGKQREFVGGITLGGSTIYADSVKGRFTISMDSARNTGYLQMNSLKPEDTAVYYCNAALDGYSGSSWGQGTQVTVSS

Kd (CB1R): 12 nM
B12: vHH6B7 (protein)
VHH: EVQLVESGGGLVQAGGSLRLSCAASGRTLRNYDMGWFRQAPGKEREFVATIRWSTSETYYADSVKGRFTISSDNAKNTVDLQMNSLTPGDTGVYYCAARSVYSYDYNYWGQGTQVTVSS

Kd (CB1R): 12 nM
B13: vHH5G11 (protein)
VHH: EVQLVKSGGGLVQAGGSLRLSCAASGRTLSNYDMGWFRQAPGKEREFVATIRWSTGETYYTDSVKGRFTISKDNTKNTVDLQMNSLTPEDTAVYYCASRSVYSYEYNYWGQGTQVTVSS
